Biological target: T1, Fc control (Fc fusion partner alone) (human, UniProt P01857-1 100-330 = IgG part, limits assumed)
T1 construct: domain: Fc; Control protein, 'prepared as described previously'
Assay: in vivo homing; anti-human Fc immunofluorescence on frozen sections of urethane-induced mouse lung tumors, 2 h after i.p. injection
Description: First, we tested if systemically administered ephrin-A1-Fc could home to urethane-induced lung tumors that overexpress EphA2. Lung tumors were induced in wild type mice with urethane. Twenty-five weeks later, mice were injected i.p. with 5 μg/g ephrin-A1-Fc. Fc fusion partner alone was used as control. Two hours after injection, mice were sacrificed, and tumors were dissected out; frozen sections were subject to immunofluorescence staining to detect whether there was a selective homing of ephrin-A1-Fc to tumor tissues relative to control Fc. […] Both FITC-conjugated donkey anti-Fc and Texas-Red-conjugated goat anti-human Fc antibodies yielded similar patterns of selective tumor homing.

B1: EphA2 kinase of mouse (urethane-induced lung tumors, primary keratinocytes, MEF, mouse lung tumor cell lines) (receptor, UniProt Q03145 26-977, looked up)
chain: KEVVLLDFAAMKGELGWLTHPYGKGWDLMQNIMDDMPIYMYSVCNVVSGDQDNWLRTNWVYREEAERIFIELKFTVRDCNSFPGGASSCKETFNLYYAESDVDYGTNFQKRQFTKIDTIAPDEITVSSDFEARNVKLNVEERMVGPLTRKGFYLAFQDIGACVALLSVRVYYKKCPEMLQSLARFPETIAVAVSDTQPLATVAGTCVDHAVVPYGGEGPLMHCTVDGEWLVPIGQCLCQEGYEKVEDACRACSPGFFKSEASESPCLECPEHTLPSTEGATSCQCEEGYFRAPEDPLSMSCTRPPSAPNYLTAIGMGAKVELRWTAPKDTGGRQDIVYSVTCEQCWPESGECGPCEASVRYSEPPHALTRTSVTVSDLEPHMNYTFAVEARNGVSGLVTSRSFRTASVSINQTEPPKVRLEDRSTTSLSVTWSIPVSQQSRVWKYEVTYRKKGDANSYNVRRTEGFSVTLDDLAPDTTYLVQVQALTQEGQGAGSKVHEFQTLSTEGSANMAVIGGVAVGVVLLLVLAGVGLFIHRRRRNLRARQSSEDVRFSKSEQLKPLKTYVDPHTYEDPNQAVLKFTTEIHPSCVARQKVIGAGEFGEVYKGTLKASSGKKEIPVAIKTLKAGYTEKQRVDFLSEASIMGQFSHHNIIRLEGVVSKYKPMMIITEYMENGALDKFLREKDGEFSVLQLVGMLRGIASGMKYLANMNYVHRDLAARNILVNSNLVCKVSDFGLSRVLEDDPEATYTTSGGKIPIRWTAPEAISYRKFTSASDVWSYGIVMWEVMTYGERPYWELSNHEVMKAINDGFRLPTPMDCPSAIYQLMMQCWQQERSRRPKFADIVSILDKLIRAPDSLKTLADFDPRVSIRLPSTSGSEGVPFRTVSEWLESIKMQQYTEHFMVAGYTAIEKVVQMSNEDIKRIGVRLPGHQKRIAYSLLGLKDQVNTVGIPI
notes: whole, on cells
**Q.** Does B1 bind?
**A.** no binding (tested: 2.5 µg/ml Fc control (i.p.))

From patent US20170165322A1 (CASE WESTERN RESERVE UNIVERSITY, published 2017)
